The record followed here is paper PMC12483278, “The viral BCL2 protein BHRF1 of Epstein–Barr virus promotes AIM2 inflammasome activation to facilitate lytic replication” (PLOS Pathogens, 2025).

This assay deals with T1, GST-AIM2 full-length (UniProt O14862 1-343).
T1 construct: also called GST-AIM2 WT; GST-tagged AIM2; source: HEK293T, transfected, in lysate
T1 sequence (looked up): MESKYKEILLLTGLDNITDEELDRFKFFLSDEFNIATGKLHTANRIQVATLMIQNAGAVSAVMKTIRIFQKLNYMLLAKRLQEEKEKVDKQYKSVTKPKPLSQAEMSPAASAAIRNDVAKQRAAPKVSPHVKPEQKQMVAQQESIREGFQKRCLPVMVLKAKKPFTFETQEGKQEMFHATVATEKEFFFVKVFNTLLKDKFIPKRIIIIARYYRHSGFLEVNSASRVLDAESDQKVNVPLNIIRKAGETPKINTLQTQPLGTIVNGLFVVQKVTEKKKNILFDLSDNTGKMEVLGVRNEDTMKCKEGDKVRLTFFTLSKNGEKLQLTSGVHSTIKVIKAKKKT
In words: pull-down; purified GST-AIM2, Flag-ASC-His and GFP-BHRF1-His mixed and incubated in the absence or presence of purified HSV-1 dsDNA overnight at 4 °C; GST-affinity beads, western blotting. The following applies: both partners purified. For orientation: In western blotting, separated proteins are transferred to a membrane and probed.

B1: GFP-BHRF1-His (natural protein)
chain: MAYSTREILLALCIRDSRVHGNGTLHPVLELAARETPLRLSPEDTVVLRYHVLLEEIIERNSETFTETWNRFITHTEHVDLDFNSVFLEIFHRGDPSLGRALAWMAWCMHACRTLCCNQSTPYYVVDLSVRGMLEASEGLDGWIHQQGGWSTLIEDNIPGSRRFSWTLFLAGLTLSLLVICSYLFISRGRH
notes: also called purified BHRF1 protein
Turning to B1, the binding result is listed as “binds”.
